Measurements published in publication PMC5065529, “Wnt Signalosome Assembly by DEP Domain Swapping of Dishevelled” (Molecular Cell, 2016).

B1: SNAP-FZD5 (Frizzled 5), wild type [human] / DEP_(414–507)-GFP, minimal DEP domain of DVL2 [human] (parent)
chain 1: GRGLSVHTDMASVTKAMAAPESGLEVRDRMWLKITIPNAFLGSDVVDWLYHHVEGFPERREARKYASGLLKAGLIRHTVNKITFSEQCYYVFGD
chain 2: ASKAPVCQEITVPMCRGIGYNLTHMPNQFNHDTQDEAGLEVHQFWPLVEIQCSPDLRFFLCSMYTPICLPDYHKPLPPCRSVCERAKAGCSPLMRQYGFAWPERMSCDRLPVLGRDAEVLCMDYNRSEATTAPPRPFPAKPTLPGPPGAPASGGECPAGGPFVCKCREPFVPILKESHPLYNKVRTGQVPNCAVPCYQPSFSADERTFATFWIGLWSVLCFISTSTTVATFLIDMERFRYPERPIIFLSACYLCVSLGFLVRLVVGHASVACSREHNHIHYETTGPALCTIVFLLVYFFGMASSIWWVILSLTWFLAAGMKWGNEAIAGYAQYFHLAAWLIPSVKSITALALSSVDGDPVAGICYVGNQNLNSLRGFVLGPLVLYLLVGTLFLLAGFVSLFRIRSVIKQGGTKTDKLEKLMIRIGIFTLLYTVPASIVVACYLYEQHYRESWEAALTCACPGHDTGQPRAKPEYWVLMLKYFMCLVVGITSGVWIWSGKTVESWRRFTSRCCCRPRRGHKSGGAMAAGDYPEASAALTGRTGPPGPAATYHKQVSLSHV

Variants of: B1
Test: FZD5-dependent PM recruitment of DEP-GFP (cell scoring)
Details: with DEP_(414–507)-GFP, 100 cells scored in each case

Variant: chain 2 ASKAPVCQEITVPMCRGIGYNLTHMPNQFNHDTQDEAGLEVHQFWPLVEIQCSPDLRFFLCSMYTPICLPDYHKPLPPCRSVCERAKAGCSPLMRQYGFAWPERMSCDRLPVLGRDAEVLCMDYNRSEATTAPPRPFPAKPTLPGPPGAPASGGECPAGGPFVCKCREPFVPILKESHPLYNKVRTGQVPNCAVPCYQPSFSADERTFATFWIGLWSVLCFISTSTTVATFLIDMEAFRYPERPIIFLSACYLCVSLGFLVRLVVGHASVACSREHNHIHYETTGPALCTIVFLLVYFFGMASSIWWVILSLTWFLAAGMKWGNEAIAGYAQYFHLAAWLIPSVKSITALALSSVDGDPVAGICYVGNQNLNSLRGFVLGPLVLYLLVGTLFLLAGFVSLFRIRSVIKQGGTKTDKLEKLMIRIGIFTLLYTVPASIVVACYLYEQHYRESWEAALTCACPGHDTGQPRAKPEYWVLMLKYFMCLVVGITSGVWIWSGKTVESWRRFTSRCCCRPRRGHKSGGAMAAGDYPEASAALTGRTGPPGPAATYHKQVSLSHV [chain 2 R237A]
- screen value (parent: 52, read off a plot): 12 % of cells
- screen value (parent: 88, read off a plot): 77 % of cells

Variant: chain 2 ASKAPVCQEITVPMCRGIGYNLTHMPNQFNHDTQDEAGLEVHQFWPLVEIQCSPDLRFFLCSMYTPICLPDYHKPLPPCRSVCERAKAGCSPLMRQYGFAWPERMSCDRLPVLGRDAEVLCMDYNRSEATTAPPRPFPAKPTLPGPPGAPASGGECPAGGPFVCKCREPFVPILKESHPLYNKVRTGQVPNCAVPCYQPSFSADERTFATFWIGLWSVLCFISTSTTVATFLIDMERFAYPERPIIFLSACYLCVSLGFLVRLVVGHASVACSREHNHIHYETTGPALCTIVFLLVYFFGMASSIWWVILSLTWFLAAGMKWGNEAIAGYAQYFHLAAWLIPSVKSITALALSSVDGDPVAGICYVGNQNLNSLRGFVLGPLVLYLLVGTLFLLAGFVSLFRIRSVIKQGGTKTDKLEKLMIRIGIFTLLYTVPASIVVACYLYEQHYRESWEAALTCACPGHDTGQPRAKPEYWVLMLKYFMCLVVGITSGVWIWSGKTVESWRRFTSRCCCRPRRGHKSGGAMAAGDYPEASAALTGRTGPPGPAATYHKQVSLSHV [chain 2 R239A]
- screen value (parent: 52, read off a plot): 11 % of cells
- screen value (parent: 88, read off a plot): 56 % of cells

Variant: chain 2 ASKAPVCQEITVPMCRGIGYNLTHMPNQFNHDTQDEAGLEVHQFWPLVEIQCSPDLRFFLCSMYTPICLPDYHKPLPPCRSVCERAKAGCSPLMRQYGFAWPERMSCDRLPVLGRDAEVLCMDYNRSEATTAPPRPFPAKPTLPGPPGAPASGGECPAGGPFVCKCREPFVPILKESHPLYNKVRTGQVPNCAVPCYQPSFSADERTFATFWIGLWSVLCFISTSTTVATFLIDMERFRYPERPIIFLSACYLCVSLGFLVRLVVGHASVACSREHNHIHYETTGPALCTIVFLLVYFFGMASSIWWVILSLTWFLAAGMKWGNEAIAGYAQYFHLAAWLIPSVKSITALALSSVDGDPVAGICYVGNQNLNSLRGFVLGPLVLYLLVGTLFLLAGFVSLFRIRSVIKQGGTKTDKLEKLMIRIGIFTLLYTVPASIVVACYLYEQHYRESWEAALTCACPGHDTGQPRAKPEYWVLMLKYFMCLVVGITSGVWIWSGKTVESWRAFTSRCCCRPRRGHKSGGAMAAGDYPEASAALTGRTGPPGPAATYHKQVSLSHV [chain 2 R506A]
- screen value (parent: 52, read off a plot): 49 % of cells
- screen value (parent: 88, read off a plot): 96 % of cells

Variant: chain 2 ASKAPVCQEITVPMCRGIGYNLTHMPNQFNHDTQDEAGLEVHQFWPLVEIQCSPDLRFFLCSMYTPICLPDYHKPLPPCRSVCERAKAGCSPLMRQYGFAWPERMSCDRLPVLGRDAEVLCMDYNRSEATTAPPRPFPAKPTLPGPPGAPASGGECPAGGPFVCKCREPFVPILKESHPLYNKVRTGQVPNCAVPCYQPSFSADERTFATFWIGLWSVLCFISTSTTVATFLIDMERFRYPERPIIFLSACYLCVSLGFLVRLVVGHASVACSREHNHIHYETTGPALCTIVFLLVYFFGMASSIWWVILSLTWFLAAGMKWGNEAIAGYAQYFHLAAWLIPSVKSITALALSSVDGDPVAGICYVGNQNLNSLRGFVLGPLVLYLLVGTLFLLAGFVSLFRIRSVIKQGGTKTDKLEKLMIRIGIFTLLYTVPASIVVACYLYEQHYRESWEAALTCACPGHDTGQPRAKPEYWVLMLKYFMCLVVGITSGVWIWSGKTVESWRRFTSACCCRPRRGHKSGGAMAAGDYPEASAALTGRTGPPGPAATYHKQVSLSHV [chain 2 R510A]
- screen value (parent: 52, read off a plot): 49 % of cells
- screen value (parent: 88, read off a plot): 85 % of cells

Variant: chain 2 ASKAPVCQEITVPMCRGIGYNLTHMPNQFNHDTQDEAGLEVHQFWPLVEIQCSPDLRFFLCSMYTPICLPDYHKPLPPCRSVCERAKAGCSPLMRQYGFAWPERMSCDRLPVLGRDAEVLCMDYNRSEATTAPPRPFPAKPTLPGPPGAPASGGECPAGGPFVCKCREPFVPILKESHPLYNKVRTGQVPNCAVPCYQPSFSADERTFATFWIGLWSVLCFISTSTTVATFLIDMERFRYPERPIIFLSACYLCVSLGFLVRLVVGHASVACSREHNHIHYETTGPALCTIVFLLVYFFGMASSIWWVILSLTWFLAAGMKWGNEAIAGYAQYFHLAAWLIPSVKSITALALSSVDGDPVAGICYVGNQNLNSLRGFVLGPLVLYLLVGTLFLLAGFVSLFRIRSVIKQGGTKTDKLEKLMIRIGIFTLLYTVPASIVVACYLYEQHYRESWEAALTCACPGHDTGQPRAKPEYWVLMLKYFMCLVVGITSGVWIWAGKTVESWRRFTSRCCCRPRRGHKSGGAMAAGDYPEASAALTGRTGPPGPAATYHKQVSLSHV [chain 2 S497A]
- screen value (parent: 52, read off a plot): 60 % of cells
- screen value (parent: 88, read off a plot): 90 % of cells

Variant: chain 2 ASKAPVCQEITVPMCRGIGYNLTHMPNQFNHDTQDEAGLEVHQFWPLVEIQCSPDLRFFLCSMYTPICLPDYHKPLPPCRSVCERAKAGCSPLMRQYGFAWPERMSCDRLPVLGRDAEVLCMDYNRSEATTAPPRPFPAKPTLPGPPGAPASGGECPAGGPFVCKCREPFVPILKESHPLYNKVRTGQVPNCAVPCYQPSFSADERTFATFWIGLWSVLCFISTSTTVATFLIDMERFRYPERPIIFLSACYLCVSLGFLVRLVVGHASVACSREHNHIHYETTGPALCTIVFLLVYFFGMASSIWWVILSLTWFLAAGMKWGNEAIAGYAQYFHLAAWLIPSVKSITALALSSVDGDPVAGICYVGNQNLNSLRGFVLGPLVLYLLVGTLFLLAGFVSLFRIRSVIKQGGTKTDKLEKLMIRIGIFTLLYTVPASIVVACYLYEQHYRESWEAALTCACPGHDTGQPRAKPEYWVLMLKYFMCLVVGITSGVWIWSGKTVEAWRRFTSRCCCRPRRGHKSGGAMAAGDYPEASAALTGRTGPPGPAATYHKQVSLSHV [chain 2 S503A]
- screen value (parent: 52, read off a plot): 50 % of cells
- screen value (parent: 88, read off a plot): 93 % of cells
